Test results from patent US4125375A, “Separation of solid and liquid components of mixtures” (National Research Development Corporation, priority 1975, dated 1978).
Where “and” joins values, the source holds several entries; their conditions need not be identical. Identical values can stand only once.

Tested on: antibody to BTG coupled to Sepharose 4B
Assay: Radioimmunoassay for platelet β thromboglobulin (BTG), Sepharose 4B-coupled antibody separated by sucrose layering
Type: binding
Protocol: After primary incubation with ^125 I BTG, 1 ml aliquots of standard BTG of known concentrations in the range from 0.2 to 25.6 µg/ml are incubated in 75 × 17 mm sample tubes with an antibody to BTG coupled to Sepharose 4B. After incubation the Sepharose 4B and supernatant are separated by the method of the invention as follows.
1 ml of diluent is added to each sample tube followed by 6 ml of 10% w/v sucrose in water. The sucrose solution is added over a period of about 15 seconds through a stainless steel probe by means of a peristaltic pump. The outlet of the probe is positioned about 0.5 cm from the bottom of the sample tube, and the sucrose solution forms a discrete layer beneath the incubate. In this way the sucrose addition is carried out in a substantially non-turbulent manner. The sample tubes are then left to stand for about 60 minutes during which time the Sepharose 4B together with bound BTG settles out of the incubate into the sucrose solution forming a deposit at the bottom of each tube.
Each sample tube, in turn, is then placed in an auto-γ counter (Wallac Instruments Ltd) modified as shown in FIG. 1 and counted for a period of 49.9 seconds (this being the period required to yield 10,000 counts from the total amount of ^125 I-BTG added to each tube). The sample tubes are then left to stand for a further 16 hours, and each sample tube is again counted. The results obtained are given in Table I, dividing the counts obtained by 100 giving the results in terms of the percentage of the total ^125 I-BTG which has been bound in each case.
With reference to FIG. 1 the γ-counter has a well type detector into which the sample tube 1 enters. The detector is modified by placing a 2.5 cm length of plastic tube 2 in the bottom of the well and adding an annular disc 3 of lead screening material beneath customary annular plastic disc spill shield 4. In such an arrangement the source which is to be counted, the bound ^125 I BTG linked to the deposit of Sepharose 4B 5 at the bottom of the tube 1, is well within the detector. The free ^125 I BTG present in the 2 ml layer of aqueous incubate 6 is separated from the detector by the intervening 6 ml layer 7 of 10% w/v sucrose solution, and also the detector is shielded to a large extent against stray radiation from the free fraction by the disc 3 of lead screening material. For all intents and purposes the detector "sees" only radiation from the bound and not from the free fraction.

[1] = 0 μg standard BTG, A after 1 hr. standing
[2] = 0 μg standard BTG, B after 17 hrs. standing
[3] = Controls without antibody, A after 1 hr. standing
[4] = Controls without antibody, B after 17 hrs. standing
[5] = 0.2 μg standard BTG, A after 1 hr. standing
[6] = 0.2 μg standard BTG, B after 17 hrs. standing
[7] = 0.4 μg standard BTG, A after 1 hr. standing
[8] = 0.4 μg standard BTG, B after 17 hrs. standing
[9] = 0.8 μg standard BTG, A after 1 hr. standing
[10] = 0.8 μg standard BTG, B after 17 hrs. standing
[11] = 1.6 μg standard BTG, A after 1 hr. standing
[12] = 1.6 μg standard BTG, B after 17 hrs. standing
[13] = 3.2 μg standard BTG, A after 1 hr. standing
[14] = 3.2 μg standard BTG, B after 17 hrs. standing
[15] = 6.4 μg standard BTG, A after 1 hr. standing
[16] = 6.4 μg standard BTG, B after 17 hrs. standing
[17] = 12.8 μg standard BTG, A after 1 hr. standing
[18] = 12.8 μg standard BTG, B after 17 hrs. standing
[19] = 25.6 μg standard BTG, A after 1 hr. standing
[20] = 25.6 μg standard BTG, B after 17 hrs. standing

B1: ^125 I-BTG: radioiodinated BTG tracer of the radioimmunoassay (protein, UniProt P02775 48-128, looked up)
Beta-thromboglobulin: GKEESLDSDLYAELRCMCIKTTSGIHPKNIQSLEVIGKGTHCNQVEVIATLKDGRKICLDPDAPRIKKIVQKKLAGDESAD
modifications: Beta-thromboglobulin 125I label
notes: radioiodinated BTG tracer of the radioimmunoassay
% bound (of total ^125 I-BTG) [1]: 45.7% | Counts (in 49.9 sec) [1]: 4617 counts and 4492 counts and 4581 counts and 4599 counts | % bound (of total ^125 I-BTG) [2]: 45.1% | Counts (in 49.9 sec) [2]: 4584 counts and 4474 counts and 4503 counts and 4496 counts | % bound (of total ^125 I-BTG) [3]: 1.5% | Counts (in 49.9 sec) [3]: 133 counts and 180 counts | % bound (of total ^125 I-BTG) [4]: 1.5% | Counts (in 49.9 sec) [4]: 160 counts and 149 counts

B2: platelet β thromboglobulin (protein, UniProt P02775 48-128, looked up)
Beta-thromboglobulin: B1 Beta-thromboglobulin
modifications: Beta-thromboglobulin
notes: standard BTG of known concentrations
% bound (of total ^125 I-BTG) [5]: 32.3% | Counts (in 49.9 sec) [5]: 3061 counts and 3409 counts | % bound (of total ^125 I-BTG) [6]: 31.3% | Counts (in 49.9 sec) [6]: 3110 counts and 3154 counts | % bound (of total ^125 I-BTG) [7]: 27.2% | Counts (in 49.9 sec) [7]: 2657 counts and 2784 counts | % bound (of total ^125 I-BTG) [8]: 27.3% | Counts (in 49.9 sec) [8]: 2059 counts and 2816 counts | % bound (of total ^125 I-BTG) [9]: 22.0% | Counts (in 49.9 sec) [9]: 2117 counts and 2286 counts | % bound (of total ^125 I-BTG) [10]: 20.9% | Counts (in 49.9 sec) [10]: 2059 counts and 2129 counts | % bound (of total ^125 I-BTG) [11]: 15.1% | Counts (in 49.9 sec) [11]: 1469 counts and 1552 counts | % bound (of total ^125 I-BTG) [12]: 14.5% | Counts (in 49.9 sec) [12]: 1451 counts and 1447 counts | % bound (of total ^125 I-BTG) [13]: 10.4% | Counts (in 49.9 sec) [13]: 1103 counts and 986 counts | % bound (of total ^125 I-BTG) [14]: 9.9% | Counts (in 49.9 sec) [14]: 979 counts and 1001 counts | % bound (of total ^125 I-BTG) [15]: 7.1% | Counts (in 49.9 sec) [15]: 706 counts and 721 counts | % bound (of total ^125 I-BTG) [16]: 6.6% | Counts (in 49.9 sec) [16]: 650 counts and 665 counts | % bound (of total ^125 I-BTG) [17]: 4.8% | Counts (in 49.9 sec) [17]: 465 counts and 495 counts | % bound (of total ^125 I-BTG) [18]: 4.5% | Counts (in 49.9 sec) [18]: 440 counts and 458 counts | % bound (of total ^125 I-BTG) [19]: 3.5% | Counts (in 49.9 sec) [19]: 346 counts and 357 counts | % bound (of total ^125 I-BTG) [20]: 3.3% | Counts (in 49.9 sec) [20]: 337 counts and 321 counts
